Source: publication PMC8065144
Values joined by “and” are separate entries in the source; they are usually repeats but may differ in a detail not shown here. Identical values can stand only once.

Molecular target: HA-tagged Glial Lazarillo (GLaz-HA) (Drosophila)
Assay: affinity purification on anti-HA beads and Western blot (bands of oligomers); GLaz-HA from larval brain extract concentrated on anti-HA beads, detected with anti-HA; the tetramers and dimers are destabilized into monomers by heat treatment or the reducing agent DTT

With “HA-tagged Glial Lazarillo (GLaz-HA) (ligand)” the stoichiometry N was 4 and 2.
